According to PMC13017536 (Nature, 2026):

Target: T1, His-tagged LetA (N-terminal 6×His2xQH-TEV-tagged LetA) (E. coli, UniProt P0AD03 1-427)
T1 sequence (looked up): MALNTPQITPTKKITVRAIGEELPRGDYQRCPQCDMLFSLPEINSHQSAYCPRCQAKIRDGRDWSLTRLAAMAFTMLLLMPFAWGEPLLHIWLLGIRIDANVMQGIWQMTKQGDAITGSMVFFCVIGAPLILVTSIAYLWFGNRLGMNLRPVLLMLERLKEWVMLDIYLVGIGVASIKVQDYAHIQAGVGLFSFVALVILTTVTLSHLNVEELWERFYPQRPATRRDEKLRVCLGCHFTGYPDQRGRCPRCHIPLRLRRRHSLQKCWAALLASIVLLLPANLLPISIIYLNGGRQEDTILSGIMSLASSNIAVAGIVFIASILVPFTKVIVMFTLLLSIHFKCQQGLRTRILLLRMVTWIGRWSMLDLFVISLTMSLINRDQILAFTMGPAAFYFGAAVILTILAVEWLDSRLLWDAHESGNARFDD
Test: cryo-EM structure

B1: LetB (lipophilic envelope-spanning tunnel B), untagged (natural protein, E. coli, UniProt P76272 1-877, looked up)
chain: MSQETPASTTEAQIKNKRRISPFWLLPFIALMIASWLIWDSYQDRGNTVTIDFMSADGIVPGRTPVRYQGVEVGTVQDISLSDDLRKIEVKVSIKSDMKDALREETQFWLVTPKASLAGVSGLDALVGGNYIGMMPGKGKEQDHFVALDTQPKYRLDNGDLMIHLQAPDLGSLNSGSLVYFRKIPVGKVYDYAINPNKQGVVIDVLIERRFTDLVKKGSRFWNVSGVDANVSISGAKVKLESLAALVNGAIAFDSPEESKPAEAEDTFGLYEDLAHSQRGVIIKLELPSGAGLTADSTPLMYQGLEVGQLTKLDLNPGGKVTGEMTVDPSVVTLLRENTRIELRNPKLSLSDANLSALLTGKTFELVPGDGEPRKEFVVVPGEKALLHEPDVLTLTLTAPESYGIDAGQPLILHGVQVGQVIDRKLTSKGVTFTVAIEPQHRELVKGDSKFVVNSRVDVKVGLDGVEFLGASASEWINGGIRILPGDKGEMKASYPLYANLEKALENSLSDLPTTTVSLSAETLPDVQAGSVVLYRKFEVGEVITVRPRANAFDIDLHIKPEYRNLLTSNSVFWAEGGAKVQLNGSGLTVQASPLSRALKGAISFDNLSGASASQRKGDKRILYASETAARAVGGQITLHAFDAGKLAVGMPIRYLGIDIGQIQTLDLITARNEVQAKAVLYPEYVQTFARGGTRFSVVTPQISAAGVEHLDTILQPYINVEPGRGNPRRDFELQEATITDSRYLDGLSIIVEAPEAGSLGIGTPVLFRGLEVGTVTGMTLGTLSDRVMIAMRISKRYQHLVRNNSVFWLASGYSLDFGLTGGVVKTGTFNQFIRGGIAFATPPGTPLAPKAQEGKHFLLQESEPKEWREWGTALPK
Question: Which “stoichiometry N” value does the source give for B1 here?
Answer: 6 LetB per LetA
